{"source": "patent US20030099647A1", "about": "(Amgen, published 2003)", "binders": {"B1": {"name": "BS-B IgG (antibody, V domains shown)", "VH": "not shown", "VL": "NFMLTQPHSVSESPGKTVTISCTRSSGSIASYYVQWYQQRPGSSPTTVIYEDDQRPSGVPDRFSGSIDSASNSASLTISGLQTEDEADYYCQSYDRNSLVFGGGTKLTVLG", "notes": "The construction is described for BS-A; the others were cloned 'using similar procedures'; The VH limits 1-121 come from the germline comparison legend; also called BS-B full-length human IgG1 antibody; not shown: human IgG1 constant region (CH1, hinge, CH2 and CH3 domains) of plasmid pDSRα19:hIgG1 CH"}}, "biological_target": "T1, CHO expressed human interferon gamma (hIFNγ) (human, UniProt P01579 24-161, glycosylated (highly glycosylated form purified))", "T1 construct": "mature; The form 'mature' is inferred from secretion into conditioned medium; also called hu-IFNγ; hu IFNγ", "T1 sequence (looked up)": "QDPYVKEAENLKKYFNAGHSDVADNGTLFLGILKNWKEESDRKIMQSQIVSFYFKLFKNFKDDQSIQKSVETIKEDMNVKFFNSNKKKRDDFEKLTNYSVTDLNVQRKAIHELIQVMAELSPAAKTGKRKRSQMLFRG", "test": "BIAcore neutralization assay; inhibition of hu IFNγ binding to IFNγ-R1"}
{"binder": "B1", "values": [{"measurement": "IC50", "result": 9, "unit": "nM"}]}
